Values belong to the binder of their own block, whether it stands above or below them.
Assays:
FcγRIIB = target: T1, FcγRIIB (human); test: SPR (Biacore T200, protein A sensor chip), binding to FcγRIIB
T1 construct: recombinant protein used as SPR analyte
Text: (§1) The Fc receptors included FcγRIIB (FcγRIIB-Acro), FcγRIIA (FcγRIIA-H167-Acro), FcγRIIIA (FcγRIIIA-V176-Acro), FcγRIIIB (FcγRIIIB-NA1-Acro), FcγRI (FcγRI-Sino), and FcRn (FcRn-Acro).
(§2) The Fc receptors included FcγRI (FcγRI-Sino), FcγRIIA (FcγRIIA-H167-Acro and FcγRIIA-R167), FcγRIIB, FcγRIIIA (FcγRIIIA-F176 and FcγRIIIA-V176-Acro), and FcγRIIIB (FcγRIIIB-NA1-Acro).

human CD40 (hCD40-his) = human CD40 (hCD40-his) (human, UniProt P25942 21-193); test: SPR Biacore T200; binder captured on protein A chip, target as analyte
Procedure: Binding affinity to human CD40 of the obtained fusion proteins PDL1-C40-6A7-FV3A (IgG1), PDL1-C40-6A7-FV3A-IgG4, PDL1-C40-6A7-FV3C (IgG1), PDL1-C40-6A7-FV3A1 (IgG1), PDL1-C40-6A7-FV3A2 (IgG1), and PDL1-C40-6A7-FV3A3 (IgG1) were determined by surface plasmon resonance (SPR) using Biacore™ T200 biosensor equipped with pre-immobilized protein A sensor chips. The original anti-CD40 monoclonal antibody C40-6A7 IgG2 (6A7, VH SEQ ID NO: 91, VL SEQ ID NO: 92), which the scFV was derived from, was used as a control.

FcγRI-Sino = target: T2, FcγRI-Sino (human, UniProt P12314 16-288, limits assumed); test: SPR (Biacore T200, protein A sensor chip), binding to FcγRI-Sino
T2 construct: bought; also called CD64 Protein, Human, Recombinant (His Tag)
Text: as §1, §2

FcγRIIA-R167 = target: T3, FcγRIIA-R167 (human); test: SPR (Biacore T200, protein A sensor chip), binding to FcγRIIA-R167
T3 construct: recombinant, His tag; ACRO product; different from FcγRIIA-R167-Sino; also called Human Fc gamma RIIA/CD32a (R167) Protein, His Tag
Text: as §1, §2

FcγRIIA-H167-Acro = target: T4, FcγRIIA-H167-Acro (human, UniProt P12318 36-218, limits assumed); test: SPR (Biacore T200, protein A sensor chip), binding to FcγRIIA-H167-Acro
T4 construct: bought; His at 167; also called Human Fc gamma RIIA/CD32a (H167) Protein, His Tag
T4 sequence (looked up): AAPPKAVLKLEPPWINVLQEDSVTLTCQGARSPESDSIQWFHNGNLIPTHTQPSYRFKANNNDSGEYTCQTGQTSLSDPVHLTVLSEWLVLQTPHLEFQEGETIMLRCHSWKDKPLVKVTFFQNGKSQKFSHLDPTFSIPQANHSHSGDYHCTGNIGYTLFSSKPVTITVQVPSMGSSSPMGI
Text: as §1, §2

FcγRIIIA-V176-Acro = target: T5, FcγRIIIA-V176-Acro (human, UniProt P08637 17-208); test: SPR (Biacore T200, protein A sensor chip), binding to FcγRIIIA-V176-Acro
T5 construct: bought; Val at 176; also called Human Fc gamma RIIIA/CD16a (V176) Protein, His Tag
Text: as §1, §2

[1] = target: T6, 6×Histidine-tagged human PD-L1 protein (hPDL1-His) (human, UniProt Q9NZQ7 19-238); test: SPR Biacore T200; binder captured on protein A chip, target as analyte
T6 construct: also called hPL1-His; His-tagged human PD-L1
Procedure: Binding affinities of the fusion proteins against human CTLA4 (hCTLA4-His) or human PD-L1 (hPDL1) were measured by surface plasmon resonance (SPR) using Biacore™ T200 biosensor equipped with pre-immobilized protein A sensor chips. A CTLA4 antibody CT4-4G12-IgG1 (CT4) was used as a control. ATOR1015-CD86 (CD86) and KN035-IgG1 (with D265A mutation in heavy chain constant domain) were also used as controls.

FcγRIIIA-F176 = target: T7, FcγRIIIA-F176 (human, UniProt P08637); test: SPR (Biacore T200, protein A sensor chip), binding to FcγRIIIA-F176
T7 construct: recombinant, His tag; ACRO product; different from FcγRIIIA-F176-Sino; also called Human Fc gamma RIIIA/CD16a (F176) Protein, His Tag
Text: as §1, §2

FcγRIIIB-NA1-Acro = target: T8, FcγRIIIB-NA1-Acro (human, UniProt O75015 17-200, limits assumed); test: SPR (Biacore T200, protein A sensor chip), binding to FcγRIIIB-NA1-Acro
T8 construct: bought; also called Human Fc gamma RIIIB/CD16b (NA1) Protein, His Tag
Text: as §1, §2

T6 sequence (Q9NZQ7 19-238 limits assumed): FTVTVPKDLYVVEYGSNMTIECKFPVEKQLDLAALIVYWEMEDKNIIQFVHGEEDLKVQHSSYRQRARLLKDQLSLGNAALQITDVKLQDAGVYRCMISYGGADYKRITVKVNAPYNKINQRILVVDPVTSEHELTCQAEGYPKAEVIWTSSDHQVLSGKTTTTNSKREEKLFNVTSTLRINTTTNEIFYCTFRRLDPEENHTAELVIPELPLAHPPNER
Chain of human CD40 (hCD40-his) (P25942 21-193 limits assumed): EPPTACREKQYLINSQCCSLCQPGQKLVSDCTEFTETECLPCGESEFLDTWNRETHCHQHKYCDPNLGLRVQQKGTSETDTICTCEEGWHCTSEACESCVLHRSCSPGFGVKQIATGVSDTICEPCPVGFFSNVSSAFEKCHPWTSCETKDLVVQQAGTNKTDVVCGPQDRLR
T5 sequence (P08637 17-208 F176V limits assumed): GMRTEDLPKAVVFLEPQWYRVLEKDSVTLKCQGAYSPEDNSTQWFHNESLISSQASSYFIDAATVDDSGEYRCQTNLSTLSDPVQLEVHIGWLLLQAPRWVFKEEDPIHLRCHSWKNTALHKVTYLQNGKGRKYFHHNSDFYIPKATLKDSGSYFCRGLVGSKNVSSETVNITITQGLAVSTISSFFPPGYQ
T2 sequence (P12314 16-288 limits assumed): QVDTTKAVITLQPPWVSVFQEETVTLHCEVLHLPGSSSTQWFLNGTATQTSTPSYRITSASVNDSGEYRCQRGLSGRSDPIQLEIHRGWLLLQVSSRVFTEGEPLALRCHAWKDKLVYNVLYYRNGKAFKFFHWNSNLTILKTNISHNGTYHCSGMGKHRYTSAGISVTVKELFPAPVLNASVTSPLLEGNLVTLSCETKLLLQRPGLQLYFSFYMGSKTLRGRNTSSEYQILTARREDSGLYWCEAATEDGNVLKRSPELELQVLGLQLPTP
T1 sequence (P31994 43-217): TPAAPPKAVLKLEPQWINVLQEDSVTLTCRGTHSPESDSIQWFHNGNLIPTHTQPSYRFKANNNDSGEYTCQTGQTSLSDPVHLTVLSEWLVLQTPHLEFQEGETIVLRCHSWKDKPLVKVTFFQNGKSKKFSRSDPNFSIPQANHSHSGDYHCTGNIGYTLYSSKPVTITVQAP
T8 sequence (O75015 other isoform, or with tags, fused parts or gaps limits assumed): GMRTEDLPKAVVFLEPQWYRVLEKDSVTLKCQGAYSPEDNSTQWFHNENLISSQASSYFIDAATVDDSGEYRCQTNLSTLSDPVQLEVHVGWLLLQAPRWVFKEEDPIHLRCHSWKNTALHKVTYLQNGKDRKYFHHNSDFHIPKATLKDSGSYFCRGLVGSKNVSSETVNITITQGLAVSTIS
T7 sequence (P08637 17-208 limits assumed, form in doubt): as the sequence (P08637 17-208 F176V limits assumed) above, with V160F counted along it

Kd (FcγRIIB): 766 nM
Kd (human CD40 (hCD40-his)): 0.852 nM
koff (human CD40 (hCD40-his)): 0.000432 s⁻¹
kon (human CD40 (hCD40-his)): 507000 M⁻¹ s⁻¹
Kd (FcγRI-Sino): 1.22 nM
Kd (FcγRIIA-R167): 706 nM
Kd (FcγRIIA-H167-Acro): 1130 nM
Kd (FcγRIIIA-V176-Acro): 75.3 nM
B1: PDL1-C40-6A7-FV3A-IgG4 (bispecific antibody)
heavy: EVQLLESGGGLVQPGGSLRLSCAASGFTFSSYIMMWVRQAPGKGLEWVSSIYPSGGITFYADTVKGRFTISRDNSKNTLYLQMNSLRAEDTAVYYCARIKLGTVTTVDYWGQGTLVTVSSASTKGPSVFPLAPCSRSTSESTAALGCLVKDYFPEPVTVSWNSGALTSGVHTFPAVLQSSGLYSLSSVVTVPSSSLGTKTYTCNVDHKPSNTKVDKRVESKYGPPCPPCPAPEFLGGPSVFLFPPKPKDTLMISRTPEVTCVVVDVSQEDPEVQFNWYVDGVEVHNAKTKPREEQFNSTYRVVSVLTVLHQDWLNGKEYKCKVSNKGLPSSIEKTISKAKGQPREPQVYTLPPSQEEGGGGSGGGGSDVVMTQSPLSLPVTLGQPASISCRSSQSLLHSNGNTYLHWYQQRPGQSPNHLIYQVSNRFSGVPDRFSGSGSGTDFTLKISRVEAEDVGVYFCSQTTHVPWTFGCGTKVEIKGGGGSGGGGSGGGGSGGGGSQVQLVQSGAEVKKPGASVKLSCKASGYTFISYYIYWVKQAPGQCLEWIGGINPRNGGTNFNEKFKSRATLTVDTSISTAYMELSRLRSEDTAVYYCTRHGNGVYWGQGTTLTVSSGGGGSGGGGSVSLTCLVKGFYPSDIAVEWESNGQPENNYKTTPPVLDSDGSFFLYSRLTVDKSRWQEGNVFSCSVMHEALHNHYTQKSLSLSLGK
light: QSALTQPASVSGSPGQSITISCTGTSSDVGGYNYVSWYQQHPGKAPKLMIYDVSNRPSGVSNRFSGSKSGNTASLTISGLQAEDEADYYCSSYTSSSTRVFGTGTKVTVLGQPKANPTVTLFPPSSEELQANKATLVCLISDFYPGAVTVAWKADGSPVKAGVETTKPSKQSNNKYAASSYLSLTPEQWKSHRSYSCQVTHEGSTVEKTVAPTECS
notes: IgG4 subtype of PDL1-C40-6A7-FV3A; also called G5

Kd (FcγRIIB): 2350 nM
Kd [1]: 2.41 nM
koff [1]: 0.00103 s⁻¹
kon [1]: 429000 M⁻¹ s⁻¹
Kd (FcγRI-Sino): 2.94 nM
Kd (FcγRIIA-R167): 326 nM
Kd (FcγRIIIA-F176): 84.6 nM
Kd (FcγRIIA-H167-Acro): 633 nM
Kd (FcγRIIIB-NA1-Acro): 1180 nM
Kd (FcγRIIIA-V176-Acro): 130 nM
B2: PD1-PL1-3F2-FV3A-IgG1 (bispecific antibody)
heavy: EVQLVESGGGLVQPGGSLRLSCAASGFTFSSYSMSWVRQAPGKRLEWVAHISSGGSSTYYPDTVKGRFTISRDNSKNTLYLQMNSLRAEDTAMYYCTRQFYYGSSFWYFDVWGAGTTVTVSSASTKGPSVFPLAPSSKSTSGGTAALGCLVKDYFPEPVTVSWNSGALTSGVHTFPAVLQSSGLYSLSSVVTVPSSSLGTQTYICNVNHKPSNTKVDKKVEPKSCDKTHTCPPCPAPELLGGPSVFLFPPKPKDTLMISRTPEVTCVVVDVSHEDPEVKFNWYVDGVEVHNAKTKPREEQYNSTYRVVSVLTVLHQDWLNGKEYKCKVSNKALPAPIEKTISKAKGQPREPQVYTLPPSREEGGGGSGGGGSQVQLQESGPGLVKPSETLSLTCTVSGYSITSGYNWHWIRQFPGNCLEWMGYIHHSSITNYNPSLKSRITISRDTSKNQFSLKLSSVTAADTATYYCAREGYDYDWFAYWGQGTLVTVSSASTGGGGSGGGGSGGGGSGGGGSDIVLTQSPDFQSVTPKEKVTLSCRASQSISNNLHWYQQKPDESPKLLIKYASQSISGIPSRFSGSGSGTDFTLTINSVEAEDFAMYFCQQSKSWPFTFGCGTRLEIKGGGGSGGGGSVSLTCLVKGFYPSDIAVEWESNGQPENNYKTTPPVLDSDGSFFLYSKLTVDKSRWQQGNVFSCSVMHEALHNHYTQKSLSLSPGK
light: DNVLTQSPATLSVSPGERATLSCKASQSVDFDGDSYMNWYQQKPGQPPRLLIYAASNLESGIPARFSGSGSGTDFTLTISSVEPEDFATYYCQQSNEDPPTFGGGTKVEIKRTVAAPSVFIFPPSDEQLKSGTASVVCLLNNFYPREAKVQWKVDNALQSGNSQESVTEQDSKDSTYSLSSTLTLSKADYEKHKVYACEVTHQGLSSPVTKSFNRGEC
notes: IgG1; also called G4

Reference: patent publication US20240360201A1 (BIOCYTOGEN PHARMACEUTICALS BEIJING, published 2024)
